Laboratory results taken from paper PMC7287101.

Target: Spt6 (UniProt Q9W420)
Test: anti-Spt6 co-IP, FLAG blot, 150 mM wash
Details: reference: wild type dCENP-A-FLAG; sites S20,S75,S77

binding against the reference: stronger
Substance: dCENP-A (CID) (from UniProt Q9V6Q2) S20/S75/S77A
